The target of series [1] is T1, PtaGTL1-C (C-terminal trihelix DNA-binding fragment) (Populus tremula x P. alba (clone …, UniProt G8G9Q9 528-779)).
T1 sequence: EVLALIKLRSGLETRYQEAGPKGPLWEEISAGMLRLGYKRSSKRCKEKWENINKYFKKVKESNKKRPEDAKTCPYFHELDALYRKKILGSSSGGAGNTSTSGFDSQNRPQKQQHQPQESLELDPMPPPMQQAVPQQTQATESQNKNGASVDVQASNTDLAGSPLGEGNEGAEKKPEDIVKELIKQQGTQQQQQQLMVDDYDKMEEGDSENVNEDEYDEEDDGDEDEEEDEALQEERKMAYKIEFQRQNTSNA
In words: EMSA; LightShift Chemiluminescent EMSA kit, per cited earlier method; 200 ng biotin probe, 1000 ng competitor; binding buffer, salt, pH and temperature not stated (probes annealed in 10 mM Tris-HCl, 1 mM EDTA, pH 8.0). Particulars: protein: recombinant; tags: N-terminal 6xHis (pDEST17); label: 3' biotin (probe); blunt. In general terms: A gel shift assay detects complexes by their altered migration in electrophoresis.

Series [2] concerns the target T1, PtaGTL1-C (C-terminal trihelix …). In words: EMSA; text: mutation inhibited the interaction; LightShift Chemiluminescent EMSA kit, per cited earlier method; 200 ng biotin probe, 1000 ng competitor; binding buffer, salt, pH and temperature not stated (probes annealed in 10 mM Tris-HCl, 1 mM EDTA, pH 8.0). Particulars: protein: recombinant; tags: N-terminal 6xHis (pDEST17); label: 3' biotin (probe); blunt.

Experimental findings from paper PMC3292583, “Poplar GTL1 Is a Ca2+/Calmodulin-Binding Transcription Factor that Functions in Plant Water Use Efficiency and Drought Tolerance” are described below.

B1: AtSDD1m (GT3 box GGTAAA to CCTAAA) (dsDNA)
DNA 1: TTCTTTGGCTTCCTAAAACTTCAATGGA
DNA 2: TCCATTGAAGTTTTAGGAAGCCAAAGAA
In the case of B1, the binding result in series [1] is reported as “no binding”.

B2: AtSDD1 promoter fragment with GT3 box (dsDNA)
DNA 1: TTCTTTGGCTTGGTAAAACTTCAATGGA
DNA 2: TCCATTGAAGTTTTACCAAGCCAAAGAA
For B2, the binding result in series [1] is given as “binds”.

B3: PtSDD1m (GT2 box GGTAAT to CCTAAT) (dsDNA)
DNA 1: TTCGTGAATATCCTAATGATTAT
DNA 2: ATAATCATTAGGATATTCACGAA
On to B3, for which, in series [2], the binding result is given as “no binding”.
